Source: article PMC9930899, “New Insights into rice pyrimidine catabolic enzymes” (Frontiers in Plant Science, 2023)

How the values were obtained:
Assay type in all cases: biochemical, Oryza sativa
[1] = substrate: CCCCCCCCCCC1=C(C)C(=O)C(OC)=C(OC)C1=O; experiment: steady-state DHODH activity, Michaelis-Menten fit; conditions: co-substrate L-dihydroorotate, 30°C
Description: (§1) steady-state DHODH activity, Michaelis-Menten fit on OsDHODH

[2] = substrate: O=C1C[C@@H](C(=O)O)NC(=O)N1; experiment: steady-state DHODH activity, Michaelis-Menten fit; conditions: co-substrate decylubiquinone, 30°C
Description: as §1

purified protein [3] = substrate: O=C1CCNC(=O)N1; experiment: purified protein; conditions: 0.1 M potassium buffer, pH 8, 1 mg/mL BSA, 37°C
purified protein [4] = substrate: CC(CNC(N)=O)C(=O)O; experiment: purified protein; conditions: 25°C
purified protein [5] = substrate: NC(=O)NCCC(=O)O; experiment: purified protein; conditions: 25°C

B1: OsDHODH (Oryza sativa Japonica Group) (protein)
chain: DEAKFCGWLFKSTQLVNPLFALLDAEFAHRLAVTAASHGFVPREKRPDPSVLGLEIWGRKFTNPIGLAAGFDKNAEAVEGLLGMGFGFVEVGSVTPLPQEGNPKPRIFRLREHGAVINRCGFNSEGIVVVAKRLGAQHGKRKMEETSSSTSPTTSDVKQGGKAGPGILGVNLGKNKISEDATADYVQGVHTLSQYADYLVINVSSPNTPGLRKLQGRKQLKDLVKKVQAARDEMQWAEDGPPPLLVKIAPDLSKQDLEDIAAVALALRLDGLIISNTTISRPSPADTHPLAQEAGGLSGKPLFDLSTNVLREMYILTRGKIPLIGCGGVSSGEDAYKKIRSGATLVQLYTAFAYGGPALIPRIKAELAECLERDGFKSVQEAVGADFK
notes: N-terminally truncated, starts at residue 82 (DEAK); N-terminal His-tag, pET15b, E. coli; full length 469 residues
What does the source list for B1?
Km [1]: 4.56 ± 0.67 µM; Km [2]: 29.7 ± 3.5 µM

B2: OsDHP-T1 (Oryza sativa Japonica Group) (protein)
chain: EFCAAVGGGSGGCGVGGGGGGDGRRILIRGGTVVNAHRVEEADVYVEDGVIVAVRPNIPVGDDHVKVIDATGKYVMPGGIDPHTHLEMEFMGTVTIDDFFSGHAAALAGGTTMHIDFVIPVNGNLTAGLESYKQKAEKSAMDYGFHMAITKWNDDVSREMETMVKEHGINSFKFFMAYKGSLMVTDDLLLQGLQKCKSLGALAMVHAENGDAVAEGQQRMIDLGITGPEGHALSRPPVLEGEATARAIRLAKFVNTPLYVVHVMSIDAMDEIAKAKREGQRVIGEPVVSGLVLDDSWLWDPDFMIASKYVMSPPIREAGHNKALQVALSSGILQLVGTDHCTFNSTQKAFGSDDFRKIPNGVNGIEERMHIIWDSMVETGRISVSDYVRVTSTECAKIFNIYPRKGAILEGSDADIIILNPERSFVMGAHTHHSRSNTNVYEGRKGKGMVEVTISRGRVVWEDGILNVVPGSGRYVRTPPYSYLFDGIEKSDAAYRASLRAPVKRGKAAA
notes: N-terminal His-tag, pET19b, E. coli; full length 539 residues, 57,989 Da
For B2, which Km (purified protein [3]) is on record?
Its Km is 300 ± 40 µM.

What about the kcat (purified protein [3]) of the same protein?
Its kcat is 1.07 ± 0.04 s⁻¹.

And the kcat/Km (purified protein [3])?
Its kcat/Km is 3550 M⁻¹ s⁻¹.

B3: Osß-UP (Oryza sativa Japonica Group) (protein)
chain: MDSSNGERPPQGEDAPAAAAGSIGGYESLHRLLQSNLSPELFKEASRLLLGLNCGRALEAISLPEATSALAKAHNFDVQAFRFDADKEYLRQPRVIRVGLIQNSIAIPTTSHFADQKKAIMEKVKPMIDAAGDAGVNILCLQEAWTMPFAFCTREKRWCEFAEPVDGESTQFLQQLAKKYNMVIVSPILERDVNHGEIVWNTAVVIGNHGNIIGIHRKNHIPRVGDFNESTYYMEGNTGHPVFETAYGKIGVNICYGRHHPLNWLAFGLNGAEIVFNPSATVGELSEPMWPIEARNAAIANSYFVGSINRVGTEVFPNPFTSGDGKPQHADFGHFYGSSHFSAPDASCTPSLSRYRDGLMISDMDLNLCRQIKDKWGFRMTARYDTYASLLSEYLKPDFKPQVIVDPLINKSA
notes: full length, 413 residues (45,713 Da), N-terminal His-tag, pET15b, E. coli
B3 was tested. Which Km (purified protein [4]) did it give?
The Km was 160 ± 20 µM.

What about the kcat (purified protein [4]) of the same protein?
The kcat was 1.36 ± 0.07 s⁻¹.

And the kcat/Km (purified protein [4])?
Its kcat/Km is 8500 M⁻¹ s⁻¹.

And the Km (purified protein [5])?
Its Km is 140 ± 10 µM.

And the kcat (purified protein [5])?
The kcat was 2.54 ± 0.07 s⁻¹.

What about the kcat/Km (purified protein [5]) of the same protein?
The kcat/Km was 18100 M⁻¹ s⁻¹.
